1 molecule from article PMC11934139 can be followed below.

For this test, the target named is αCRP scFv-His6 (LA13-IIE3). Nature of the test: BLI; αCRP scFv (2 μg/mL) immobilised on Octet Ni-NTA biosensors; CRP at 250, 125, 62.5, 15.6 and 7.8 nM; HBS Kinetics Buffer (1% heat-inactivated BSA, 0.2% Tween 20, 10 mM HEPES pH 7.4, 150 mM NaCl), 30 °C; two-state reaction model. (In general: BLI is a label-free optical method that tracks binding on a fibre tip over time.)

B1: human C-reactive protein (natural protein)
chain: QTDMSRKAFVFPKESDTSYVSLKAPLTKPLKAFTVCLHFYTELSSTRGYSIFSYATKRQDNEILIFWSKDIGYSFTVGGSEILFEVPEVTVAPVHICTSWESASGIVEFWVDGKPRVRKSLKKGYTVGAEASIILGQEQDSFGGNFEGSQSLVGDIGNVNMWDFVLSPDEINTIYLGGPFSPNVLNWRALKYEVQGEVFTKPQLWP
B1: the equilibrium dissociation constant (Kd) (as a rule, the equilibrium constant for the complex coming apart) amounted to 588 nM. This counts as sub-micromolar.
